Measured values reported in article doi:10.1101/686782 (bioRxiv, 2019).

Biological target: the molecule itself
Assay: cryo-EM structure

B1: P. savastanoi FliQ (natural protein)
chain: MTPEVAVDLFREALWLTTVLVAILVVPSLLCGLLVAMFQAATQINEQTLSFLPRLLVMLVTLIVIGPWLLKIFMEYMLSLYTSIPTLIG
notes: also called FliQ5
- stoichiometry N: 5

B2: P. savastanoi FliP (natural protein)
chain: ADPLSIPAITLSNGADGQQEYSVSLQILLIMTALSFIPAFVMLMTSFTRIIIVFSILRQALGLQQTPSNQILTGMALFLTMFIMAPVFDRVNQDALQPYLAEKLSAQDAVAKAQVPIKDFMLAQTRTSDLELFMRLSKRTDIPTPDAAPLTILVPAFVISELKTAFQIGFMIFIPFLIIDLVVASVLMAMGMMMLSPLIISLPFKIMLFVLVDGWALIVGTLAGSFGGV
- stoichiometry N: 5
